Reference: PMC10734219, “Characterization of the Membrane-Associated Electron-Bifurcating Flavoenzyme EtfABCX from the Hyperthermophilic Bacterium Thermotoga maritima” (Biochemistry, 2023)
Where “and” joins values, the source holds several entries; their conditions need not be identical. Equal entries are not always repeated.

Target: the molecule itself
Assay: SEC; purified recombinant EtfABCX analysed by size exclusion chromatography; peaks assigned by mass; EtfABCX protomers to superdimer and super-tetramer

B1: Thermotoga maritima EtfABCX holoenzyme (heterotetrameric protomer) (complex)
chain 1: MNVVVCIKQVPDTTNVRIDRKTNNLVREGVPSIINPDDERALELASQLKEKFGATVYVITMGPPQAKEALKDAIAFGLDEAVHLSDRTFAGADTLATTYTLYWGIKKIEERIGKIDLILTGKQAVDGDTGQVGPGLATRFGYALGAYVVRIEEIDPEKKEMVIVRRLDQGFEKIRLKLPAVLTITDELNKPRYADLPNLIRAIRYEPIVWTHKDLGLDPKKCGFFGSPTRVVSTNIPPARKGGDIISKNEDPEVAAEKLIEALKKFEAVRLVEALKPVLEGEKDE
chain 2: MSEKKIIFVLIEHHGGKAHPVSWELIGKARDLASKLENSEVWGVLLGEGLESVAKEAIQRGADKVLYVKNREFNTYVNYLYKKALVDMVRKYRPEIFLIGATLEGRELAGMVATELETGLTADCTGLDIIPDKKLLAMTRPTFGGNLMATIMCPDHRPQMATVRPGVMKELPPDPERTGEIIEEEYDLGTFDKLIEILETIPLQTQVNLEYAPVVVAGGKGVGGPEGFKKLKELADLLGGEVGASRAAVKAGWISPEHQVGQTGKTVRPVLYFACGISGAIQHVVGIKESEIIVAINIDEKAPIFDIADIGIVGDLHKVVPALTAKLRELLNKSGVKK
chain 3: MKIEFDVVVVGAGPSGLSCAYVLAKNGLKVAVVEKGEYPGSKNVMGGVLYVHPLKEIMPDFLEKAANSKALERNVIEQNLWLLGNEGVIKIGHRNVEWKENPNAFTVLRANFDRWFAQEVEKAGALIIPKTKVEDFLRNEKGEIAGVVTSRPKGEIHSKAVVIAEGVNPILTMKAGLRKEDLKPHMVAVAVKEVISVPEDVVNRVFGVEGNDGATIELLGSWSEGMFGMGFLYANRSSVSLGCGVLLEDLRKKKIKPYQLLENLKNHPVISDMLGEYRNNTMEYLAHLIPEGGYYAMPKVYGDRVLVCGDAAMLVNSIHREGSNHAITSGRLAAETLLEAFEKGDFSEKILKNYYLRLKESFILKDLEKYKDLMPTMEKNHQFVEIYPDLANDALKRFLQVDGTPKWDVQKQIADMVLSRRSLIGISLDLLRFWRAVR
chain 4: MRIEDKLYLNRYRTDEENPHLKIKDESICAEKCSDRPCVSCCPADVYEWTESGMEVKFEGCLECGTCRIVCPFGNIEWNYPRGNYGVLYKFG
**Q.** How did the “stoichiometry N” value turn out when B1 was run?
**A.** 2 and 4
